This passage reports Km results from article PMC9250652, “Functional analysis of the dihydroflavonol 4-reductase family of Camellia sinensis: exploiting key amino acids to reconstruct reduction activity” (Horticulture Research, 2022).

Common to all, as to assay: purified protein
Common to all, as to assay type: biochemical, Camellia sinensis
Common to all, as to settings: apparent Km, NADPH, 0.1 M potassium phosphate pH 7.0, 30 °C

Substrate in data set [1]: O=C1c2c(O)cc(O)cc2O[C@H](c2cc(O)c(O)c(O)c2)[C@H]1O
Substrate in data set [2]: O=C1c2c(O)cc(O)cc2O[C@H](c2ccc(O)cc2)[C@H]1O
Substrate in data set [3]: O=C1c2c(O)cc(O)cc2O[C@H](c2ccc(O)c(O)c2)[C@H]1O

B1: CsDFRb1 (Camellia sinensis; C126T) (protein)
chain: MEVVEVKNGYGGGGGTTVCVTGASGFIGSWLVMRLLQRGYYVRATVRDPDNTDKVKHLLDLPNATTHLSLWKADLDEDGSFDDAIQGCHGVFHVATPMNFVFVMDPENEYIKPTVDGVLNVMRSCTKAKTVKRIIYTSTMATIEYQQKPPSQYDESIWTDVDFCRARKMFAWMYLVAKTEAEKAAWKFAEDNGPDLITVHPCSVIGPFITPYKPPCTSMALALITKNKAFYPMLTQGHAVHVDDVCNAHIYLFEHPQAKGRYICSSHSFTILDLASSLSKKYPEYNIQTKFEDIDESLKPIPCPSKKLLDLGFKFKYNSDECDAGDLCAEAIEACKEKGQMPSL
notes: only point mutants active
What is called Km is the substrate concentration at which the rate is half of its maximum. Consider B1, for which the figures for the Km in the data set “purified protein [1]”, in “purified protein [2]” and in the data set “purified protein [3]” were 47.75 µM, 131.09 µM and 102.57 µM, respectively.

B2: CsDFRb1 (Camellia sinensis; N120S) (protein)
chain: MEVVEVKNGYGGGGGTTVCVTGASGFIGSWLVMRLLQRGYYVRATVRDPDNTDKVKHLLDLPNATTHLSLWKADLDEDGSFDDAIQGCHGVFHVATPMNFVFVMDPENEYIKPTVDGVLSVMRSCCKAKTVKRIIYTSTMATIEYQQKPPSQYDESIWTDVDFCRARKMFAWMYLVAKTEAEKAAWKFAEDNGPDLITVHPCSVIGPFITPYKPPCTSMALALITKNKAFYPMLTQGHAVHVDDVCNAHIYLFEHPQAKGRYICSSHSFTILDLASSLSKKYPEYNIQTKFEDIDESLKPIPCPSKKLLDLGFKFKYNSDECDAGDLCAEAIEACKEKGQMPSL
notes: only point mutants active
Turning to B2, the Km amounted to 96.58 µM in “purified protein [1]”, 148.96 µM in “purified protein [2]” and 108.66 µM in the data set “purified protein [3]”.

B3: CsDFRa (Camellia sinensis) (protein)
chain: MKDSVASATASAPGTVCVTGAAGFIGSWLVMRLLERGYIVRATVRDPANLKKVKHLLDLPKADTNLTLWKADLNEEGSFDEAIEGCSGVFHVATPMDFESKDPENEVIKPTINGVLSIIRSCTKAKTVKRLVFTSSAGTVNVQEHQQPVFDENNWSDLDFINKKKMTGWMYFVSKTLAEKAAWEAAKENNIDFISIIPTLVVGPFIMPTFPPSLITALSPITRNEGHYSIIKQGQFVHLDDLCESHIFLYERPQAEGRYICSSHDATIHDLAKLMREKWPEYNVPTEFKGIDKDLPVVSFSSKKLIGMGFEFKYSLEDMFRGAIDTCREKGLLPHSFAENPVNGNKV
For B3, the Km in “purified protein [1]” amounted to 58.44 µM; in the data set “purified protein [2]”, 145.10 µM; in “purified protein [3]” it was 41.80 µM.

B4: CsDFRc (Camellia sinensis) (protein)
chain: MEDTKSKLQEGSAVESLTTTTYCVTGATGYIGSWLVKSLLQRGYRVHATVRNQAKTLHLLPLWGGGDRLRVFRADLHKEGSFNEAVQGCSGVFHVAASMEFEVPAKEDIDSYVRANVIEPAINGTLNLLKSCLKTPSVRRVVFTSSISTMTAKDSAGKWRSVVDESCQNPIDRVWKTKTGAWVYVLSKLLTEEAAFQFANENSIDLVSVITTTVAGPFLTSTVPTSVQVLLSPITGDSKFSRILSAVNSRMGSIALVHIEDICSAHIFLMEHDGAEGRYICSAHSSVISQLVDHLAKEHPFSNMQRLVEEEHGSVPSEISSKKLRDLGFNFKFGLEDIIHHTVSSCVDCGFLCPTVN
B4: the results for the Km in “purified protein [1]”, in the data set “purified protein [2]” and in the data set “purified protein [3]” were 105.56 µM, 42.31 µM and 81.80 µM, respectively.
